According to patent US20240018263A1:

Tests used:
[1] = biological target: VH-9.7 antigen on human patient-derived glioblastoma stem-like cells (GSC lines 12.1, 22, 33, 44, 99); assay: flow cytometry titration of monomeric VH-9.7 on live 33 GSC, one-site equilibrium fit, four independent titrations
[2] = biological target: VH-9.7 antigen on human patient-derived glioblastoma stem-like cells (GSC lines 12.1, 22, 33, 44, 99); assay: flow cytometry on cells dissociated from 44 GSC orthotopic xenografts, 125 nM predimerized VH-9.7

Kd [1]: 74.3 nM
percent of cells labelled [2]: 17.9%
B1: VH-9.7-CMYC-HIS6 (soluble, purified single domain antibody VH-9.7) (antibody, V domains shown)
VH: QVQLVESEAEVKKPGASVKVSCKASGYSFTNYYMHWVRQAPGQGLEWMGLIDPSGTSTTYAQKFQGRVTMTRDTSASTVYMELTSLRSEDTAMYYCVGEESGSGSFSDWGQGTLVTVSS
